From US20210206847A1

Target: biotin-labeled soluble FcRn protein (UniProt P55899)
Experiment: SPR; pH 6.0

Kd | Substance
106 nM | novel IgG1 Fc monomer (sFc) (from UniProt P0DOX5 233-449)
119 nM | 1-B10-9 (from UniProt P0DOX5 233-449)
